{"source": "patent US20190309023A1", "about": "(MAINLINE BIOSCIENCES, published 2019)", "binders": {"B1": {"name": "Phenylacetyl-cyclo[hCys-Tyr-Lys(iPr)-(D-Arg)-2Nal-Gly-Cys]-Lys(iPr)-Gly-NH2 (peptide)", "peptide": "PhAc-[hCys]YK(iPr)[dR][2Nal]GCK(iPr)G-NH2", "modifications": "disulfide 1-7; also: acetate salt", "notes": "Synthetic cyclic peptide, acetate salt; also called MLB-025"}, "B2": {"name": "Cyclo[Mpa-Tyr-Lys(iPr)-(D-Arg)-2Nal-Gly-Cys]-Arg-Gly-(D-Phe)-Gly-NH2 (peptide)", "peptide": "[Mpa]YK(iPr)[dR][2Nal]GCRG[dF]G-NH2", "modifications": "disulfide 1-7; also: acetate salt", "notes": "Synthetic cyclic peptide, acetate salt; also called MLB-002"}, "B3": {"name": "Cyclo[Mpa-Tyr-Arg-(D-Arg)-2Nal-Gly-Cys]-Arg-Gly-(D-Phe)-Gly-NH2 (peptide)", "peptide": "[Mpa]YR[dR][2Nal]GCRG[dF]G-NH2", "modifications": "disulfide 1-7; also: acetate salt", "notes": "Synthetic cyclic peptide, acetate salt; also called MLB-001"}, "B4": {"name": "Benzoyl-cyclo[hCys-Tyr-Lys(iPr)-(D-Arg)-2Nal-Gly-Cys]-Lys(iPr)-Gly-NH2 (peptide)", "peptide": "Bz-[hCys]YK(iPr)[dR][2Nal]GCK(iPr)G-NH2", "modifications": "disulfide 1-7; also: acetate salt", "notes": "Synthetic cyclic peptide, acetate salt; also called MLB-021"}, "B5": {"name": "Cyclo[Mpa-Tyr-Lys(iPr)-(D-Arg)-2Nal-Gly-Cys]-(D-Arg)-Gly-(D-Phe)-Gly-NH2 (peptide)", "peptide": "[Mpa]YK(iPr)[dR][2Nal]GC[dR]G[dF]G-NH2", "modifications": "disulfide 1-7; also: acetate salt", "notes": "Synthetic cyclic peptide, acetate salt; also called MLB-004"}, "B6": {"name": "Cyclo[Mpa-Tyr-Lys(iPr)-(D-Arg)-2Nal-Gly-Cys]-Lys(iPr)-Gly-2Nal-Gly-NH2 (peptide)", "peptide": "[Mpa]YK(iPr)[dR][2Nal]GCK(iPr)G[2Nal]G-NH2", "modifications": "disulfide 1-7; also: acetate salt", "notes": "Synthetic cyclic peptide, acetate salt; also called MLB-008"}, "B7": {"name": "Cyclo[Mpa-Arg-Tyr-Arg-2Nal-Gly-Cys]-Arg-Gly-(D-Phe)-Gly-NH2 (peptide)", "peptide": "[Mpa]RYR[2Nal]GCRG[dF]G-NH2", "modifications": "disulfide 1-7; also: acetate salt", "notes": "Synthetic cyclic peptide, acetate salt; also called MLB-011"}, "B8": {"name": "Ac-cyclo[hCys-Tyr-Lys(iPr)-(D-Arg)-2Nal-Gly-Cys]-Lys(iPr)-Gly-NH2 (peptide)", "peptide": "Ac-[hCys]YK(iPr)[dR][2Nal]GCK(iPr)G-NH2", "modifications": "disulfide 1-7; also: acetate salt", "notes": "Synthetic cyclic peptide, acetate salt; also called MLB-010"}, "B9": {"name": "Benzoyl-cyclo[Cys-Tyr-Lys(iPr)-(D-Arg)-2Nal-Gly-hCys]-Lys(iPr)-Gly-NH2 (peptide)", "peptide": "Bz-CYK(iPr)[dR][2Nal]G[hCys]K(iPr)G-NH2", "modifications": "disulfide 1-7; also: acetate salt", "notes": "Synthetic cyclic peptide, acetate salt; also called MLB-022"}, "B10": {"name": "Ac-cyclo[hCys-Tyr-Lys(iPr)-(D-Arg)-2Nal-Gly-Cys]-Lys(iPr)-Gly-NH(Et) (peptide)", "peptide": "Ac-[hCys]YK(iPr)[dR][2Nal]GCK(iPr)G-NHEt", "modifications": "disulfide 1-7; also: acetate salt", "notes": "Synthetic cyclic peptide, acetate salt; also called MLB-026"}, "B11": {"name": "Benzoyl-cyclo[Cys-Tyr-Lys(iPr)-(D-Arg)-2Nal-Gly-Cys]-Lys(iPr)-Gly-NH2 (peptide)", "peptide": "Bz-CYK(iPr)[dR][2Nal]GCK(iPr)G-NH2", "modifications": "disulfide 1-7; also: acetate salt", "notes": "Synthetic cyclic peptide, acetate salt; also called MLB-023"}, "B12": {"name": "Benzoyl-cyclo[hCys-Tyr-Lys(iPr)-(D-Arg)-2Nal-Gly-Cys]-Lys(iPr)-Gly-NH(Et) (peptide)", "peptide": "Bz-[hCys]YK(iPr)[dR][2Nal]GCK(iPr)G-NHEt", "modifications": "disulfide 1-7; also: acetate salt", "notes": "Synthetic cyclic peptide, acetate salt; also called MLB-024"}, "B13": {"name": "Cyclo[Mpa-Tyr-Lys(iPr)-(D-Arg)-2Nal-Gly-Cys]-Lys(iPr)-Gly-NH(Et) (peptide)", "peptide": "[Mpa]YK(iPr)[dR][2Nal]GCK(iPr)G-NHEt", "modifications": "disulfide 1-7; also: acetate salt", "notes": "Synthetic cyclic peptide, acetate salt; also called MLB-014"}, "B14": {"name": "Cyclo[Mpa-Tyr-Lys(iPr)-(D-Arg)-2Nal-Gly-Cys]-Lys(iPr)-Lys(Ac)-NH(Et) (peptide)", "peptide": "[Mpa]YK(iPr)[dR][2Nal]GCK(iPr)K(Ac)-NHEt", "modifications": "disulfide 1-7; also: acetate salt", "notes": "Synthetic cyclic peptide, acetate salt; also called MLB-027"}, "B15": {"name": "Cyclo[Mpa-Tyr-Lys(iPr)-(D-Arg)-2Nal-Gly-Cys]-Lys(iPr)-Lys(palmitoyl)-NH(Et) (peptide)", "peptide": "[Mpa]YK(iPr)[dR][2Nal]GCK(iPr)K(Palmitoyl)-NHEt", "modifications": "disulfide 1-7; also: acetate salt", "notes": "Synthetic cyclic peptide, acetate salt; also called MLB-029"}, "B16": {"name": "Cyclo[Mpa-Tyr-Lys(iPr)-(D-Arg)-2Nal-Gly-Cys]-Lys(iPr)-Lys(lauroyl)-NH(Et) (peptide)", "peptide": "[Mpa]YK(iPr)[dR][2Nal]GCK(iPr)K(Lauroyl)-NHEt", "modifications": "disulfide 1-7; also: acetate salt", "notes": "Synthetic cyclic peptide, acetate salt; also called MLB-028"}}, "note": "Bridge positions count the residues as written; N and C are the ends. Square brackets hold non-standard residues; d marks the D form. * marks the point of attachment. 2Nal = N[C@@H](Cc1ccc2ccccc2c1)C(=O)O; Palmitoyl = CCCCCCCCCCCCCCCC(=O)*; Lauroyl = CCCCCCCCCCCC(=O)*; hCys = N[C@@H](CCS)C(=O)O; PhAc = O=C(Cc1ccccc1)*; Bz = O=C(c1ccccc1)*; Mpa = O=C(O)CCS; iPr = CC(C)*", "data": [{"target": "T1, Human chemokine receptor CXCR4 (human, UniProt P61073 1-352)", "T1 construct": "whole, on cells; Used as membranes (0.5 ug membrane protein) of Chem-1 cells that express the receptor; also called C-X-C chemokine receptor type 4; fusin", "T1 sequence (P61073 whole entry)": "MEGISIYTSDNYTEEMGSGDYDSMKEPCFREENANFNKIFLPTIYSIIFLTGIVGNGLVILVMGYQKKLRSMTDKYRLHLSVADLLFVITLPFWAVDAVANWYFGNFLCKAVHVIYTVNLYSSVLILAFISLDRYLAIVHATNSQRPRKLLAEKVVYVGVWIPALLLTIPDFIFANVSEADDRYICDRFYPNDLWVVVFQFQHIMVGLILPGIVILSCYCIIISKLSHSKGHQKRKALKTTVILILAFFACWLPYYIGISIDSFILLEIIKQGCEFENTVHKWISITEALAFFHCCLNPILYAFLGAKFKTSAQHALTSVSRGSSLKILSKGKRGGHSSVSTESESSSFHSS", "assay": "competition with [125I]SDF-1α, human CXCR4 membranes (Chem-1 cells)", "description": "Human chemokine receptor CXCR4 expressed in Chem-1 cells were used in modified HEPES buffer pH 7.4. A 0.5 μg (Membrane protein may change from lot to lot, the concentration used were adjusted as necessary), aliquot was incubated with 0.03 nM [¹²⁵I]SDF-1α for 90 minutes at 25° C. Non-specific binding was estimated in the presence of 30 nM SDF-1α. Membranes were filtered and washed, filters were then counted to determine [¹²⁵I]SDF-1α specifically bound. Compounds were screened starting at 10 μM with 11-point dilutions (Valenzuela-Fernandez A, et al. J Biol Chem. 277(18):15677, 2002).", "units": {"Binding Kb": "nM", "IC50": "nM"}, "values": [{"binder": "B1", "Binding Kb": 0.25, "IC50": 0.84}, {"binder": "Ac-CYK(iPr)[dR][2Nal]GCK(iPr)G-NH2 (linker 1-7 via 1,3‑bisbromomethyl benzene; also: acetate salt, Acetate salt)", "note": "[MLB-033]", "Binding Kb": 0.99, "IC50": 3.3}, {"binder": "B2", "Binding Kb": 0.28, "IC50": 0.92}, {"binder": "B3", "Binding Kb": 7.3, "IC50": 24}, {"binder": "Ac-CYK(iPr)[dR][2Nal]GCK(iPr)G-NH2 (linker 1-7 via 1,2‑bisbromomethyl benzene; also: acetate salt, Acetate salt)", "note": "[MLB-032]", "Binding Kb": 0.12, "IC50": 0.4}, {"binder": "B4", "Binding Kb": 0.13, "IC50": 0.42}, {"binder": "B5", "Binding Kb": 0.21, "IC50": 0.7}, {"binder": "B6", "Binding Kb": 0.29, "IC50": 0.95}, {"binder": "B7", "Binding Kb": "> 1000"}, {"binder": "B8", "Binding Kb": 0.17, "IC50": 0.56}, {"binder": "B9", "Binding Kb": 0.21, "IC50": 0.71}, {"binder": "Bz-CYK(iPr)[dR][2Nal]GCK(iPr)G-NH2 (linker 1-7 via 1,2‑bisbromomethyl benzene; also: acetate salt, Acetate salt)", "note": "[MLB-030]", "Binding Kb": 0.39, "IC50": 1.3}, {"binder": "B10", "Binding Kb": 0.27, "IC50": 0.89}, {"binder": "B11", "Binding Kb": 1, "IC50": 3.4}, {"binder": "B12", "Binding Kb": 0.39, "IC50": 1.3}, {"binder": "B13", "Binding Kb": 0.19, "IC50": 0.64}, {"binder": "B14", "Binding Kb": 0.15, "IC50": 0.48}, {"binder": "B15", "Binding Kb": 3.2, "IC50": 11}, {"binder": "B16", "Binding Kb": 2.5, "IC50": 8.2}]}]}
